# According to patent US7358088B2, “Peptides and compositions which modulate apoptosis” (ImmunoGen, Inc., priority 1995, dated 2008):
# Ends that are not written are not given here.
# B1: Bip1a ΔGD: Bip1a mutant with small deletion removing the conserved GD domain motif (protein)
# chain: MSEVRPLSRDILMETLLYEQLLEPPTMEVLGMTDSEEDLDPMEDFDSLECMEGSDALRAPRLAQLSEVAMHSLGLAFIYDQTEDIRDVLRSFMDGFTTLKENIMRFWRSPNPGSWVSCEQVLLALLLLLALLLPLLSGGLHLLLK
# B2: Bax ΔGD: Bax mutant with small deletion removing the conserved GD domain motif (protein)
# chain: MDGSGEQPRGGGPTSSEQIMKTGALLLQGFIQDRAGRMGGEAPELALDPVPQDASTKKMELQRMIAAVDTDSPREVFFRVAADMFSDGNFNWGRVVALFYFASKLVLKALCTKVPELIRTIMGWTLDFLRERLLGWIQDQGGWDGLLSYFGTPTWQTVTIFVAGVLTASLTIWKKMG
# B3: Bip1a: Bcl-2 interacting protein that induces apoptosis, lacks BH1 and BH2 (protein)
# chain: MSEVRPLSRDILMETLLYEQLLEPPTMEVLGMTDSEEDLDPMEDFDSLECMEGSDALALRLACIGDEMDVSLRAPRLAQLSEVAMHSLGLAFIYDQTEDIRDVLRSFMDGFTTLKENIMRFWRSPNPGSWVSCEQVLLALLLLLALLLPLLSGGLHLLLK
# Target: T1, Bcl-xL/Bak GD domain interaction (Homo sapiens, UniProt Q07817)
# T1 construct: made in house; host or cells: E. coli
# T1 sequence (Q07817 whole entry, the tested form may be a part): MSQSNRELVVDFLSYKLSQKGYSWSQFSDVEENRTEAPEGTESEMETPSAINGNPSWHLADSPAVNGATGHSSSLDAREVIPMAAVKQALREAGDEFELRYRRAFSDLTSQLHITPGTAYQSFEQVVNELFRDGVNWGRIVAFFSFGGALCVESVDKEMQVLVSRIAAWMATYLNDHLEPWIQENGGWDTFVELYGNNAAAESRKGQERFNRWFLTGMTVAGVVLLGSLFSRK
# Experiment: High through-put screening assay 2: GST-Bcl-xL binding to biotinylated Bak GD peptide on neutravidin wells, ELISA
# Conditions: competing peptide added, ELISA signal
# Protocol: An assay was developed to screen for compounds that block the interaction between the Bcl-2 homologs, Bcl-xL and Bak. A synthetic peptide corresponding to the Bak GD binding domain ([…] [SEQ ID NO: 35]) was biotinylated and bound to wells coated with neutravidin. […] Peptides encompassing the GD domain from various Bcl-2 family members were tested for their ability to block GD domain-mediated interactions in this assay. Peptides tested: Bcl-w [SEQ ID NO: 39] […] ([…]), Bak [SEQ ID NO: 36]([…]), Bak-15 [SEQ ID NO: 37] ([…]), Bak-15L78A [SEQ ID NO: 38] ([…]), control (no peptide).
# In a modification of the high through-put screening assay 1 described herein, wells are coated with an avidin derivative, to which a biotinylated peptide/protein is bound. A GST-fusion protein that can interact with the biotinylated peptide/protein is added in the presence or absence of test compounds. The plates are incubated and then unbound GST-fusion protein is removed by washing. The amount of GST-fusion protein specifically bound to the tethered peptide/protein is determined by ELISA using an anti-GST antibody conjugated to horse radish peroxidase. Compounds which block the interaction between the biotinylated peptide/protein and the GST-fusion protein cause a decrease in the ELISA signal.
# In a specific example, an assay was developed to screen for compounds that block the interaction between the Bcl-2 homologs, Bcl-xL and Bak. A biotinylated Bak GD domain peptide (amino acid residues 71-89; N-biotinylated […] [SEQ ID NO: 35]) was bound to wells coated with neutravidin. […] Using this assay, peptides from Bcl-2 family members were identified which block the Bcl-xL/Bak GD domain interaction (FIG. 10).
row,Molecule,inhibition of Bcl-xL/Bak GD domain binding
1,"GSDALALRLACIGDEMDVSL [Bip1a peptide, peptide encompassing the GD domain from Bip1a]",concentration-dependent inhibition of binding
2,"STKKLSECLKRIGDELDSNH [Bax peptide, peptide encompassing the GD domain from Bax]",concentration-dependent inhibition of binding
3,AADPLHQAMRAAGDEFETRF [Bcl-w peptide],did not block binding

# Target: Bcl-xL (Homo sapiens, UniProt Q07817)
# Sequence (Q07817 whole entry): as the sequence (Q07817 whole entry, the tested form may be a part) above
# Experiment: In vitro protein binding assay, 35S labeled protein with GST-Bcl-xL on glutathione-agarose beads
# Set-up: made in house; host or cells: E. coli
# Conditions: tested both in vitro and in transfected COS cells
# Protocol: A). Bak/Bcl-xL interactions measured in vitro. ^35S labeled in vitro translated Bak (lane 1) was mixed either with GST-Bcl-xL (lane 2) or GST (lane 3). The complexes were captured on glutathione-agarose beads, and bound ^35S labeled Bak protein was detected by electrophoresis on SDS polyacrylamide gels followed by autoradiography.
# The beads were removed by centrifugation and the supernatants were incubated with GST or GST-Bcl-xL (final concentration […]) at 4° C. for 1 hour. The GST fusion proteins and any interacting proteins were recovered by incubation for 1 hour with an additional […] of GSH-agarose beads. The beads were washed twice with NP-40 lysis buffer followed by two washes with NP-40 lysis buffer without NP-40. Proteins were eluted from the beads by incubation in SDS-PAGE sample buffer at 100° C. for 5 min and loaded onto 4-20% SDS-polyacrylamide gels. Following electrophoresis, gels were fixed and incubated in a fluorography enhancing solution (Amplify; Amersham). The gels were dried and subjected to autoradiography at −70° C.
row,Molecule,Bcl-xL binding capacity
1,QVG: truncated Bak protein derivative corresponding to amino acids 73-123 (QVGRQLAIIGDDINRRYDSEFQTMLQHLQPTAENAYEYFTKIATSLFESGI; not fully specified),bound Bcl-xL
2,Bax: Bcl-2 homolog and Bcl-2 interacting protein that induces apoptosis,interact specifically with Bcl-xL
3,PEM: truncated Bak protein derivative corresponding to amino acids 58-103 (PEMVTLPLQPSSTMGQVGRQLAIIGDDINRRYDSEFQTMLQHLQPT; not fully specified),bound Bcl-xL
4,B1,no longer have the capacity to interact with Bcl-xL
5,B2,no longer have the capacity to interact with Bcl-xL
6,B3,interact specifically with Bcl-xL

# System: HeLa cells
# Experiment: Microinjection assay, protection from anti-Fas and cycloheximide induced death
# Type: cell-based
# Conditions: HeLa cells microinjected with 0.3 mg/ml protein, anti-Fas and cycloheximide 18 hours
# Protocol: HeLa cells (>100 cells/condition) were microinjected without (buffer) or with GST-Bcl-xL (0.3 mg/ml) in the absence or presence of GD domain peptides (0.5 mg/ml) and the recovery of live injected cells was determined after treatment with anti-Fas and cycloheximide for 18 hours. FITC-dextran was coinjected as a marker. A 15-amino acid Bak GD domain peptide (Bak-15; residues 73-87; […] [SEQ ID NO: 37]) and a mutant Bak GD domain peptide with an alanine substitution at leucine 78 (Bak-15L78A; […] [SEQ ID NO: 38]) were tested.
# A cell-based microinjection assay is provided for the identification of agents that antagonize GD domain-mediated interactions and inhibit the cell death suppression activity of Bcl-xL and/or Bcl-2. One or preferably more than one cells are microinjected with a death suppressor protein, such as Bcl-xL or Bcl-2, which protects the cells from induction of cell death by an apoptosis-inducing agent, in the presence of a test compound, composition or agent. Compounds that bind to the death suppressor protein and prevent its protective function, resulting in the death of the microinjected cells, can thereby be identified.
# The ability of GD domain peptide variants to inhibit the function of Bcl-xL correlated with their ability to bind to Bcl-xL (see FIG. 10). […] Similar results were obtained with MRC5 human diploid fibroblasts where protection from anti-Fas-induced death by microinjected Bcl-xL was inhibited by co-injection of the wild-type, but not mutant, Bak BH3 peptide.
# Microinjection procedure: HeLa cells were plated in complete DMEM in 60 mm dishes at 2.4×10^5 cells per dish. […] Following injection, the cells were returned to the incubator and after 1 hour the number of injected cells was determined by fluorescence microscopy. Cells were then treated with anti-Fas mAb (7C11) and cycloheximide ([…]) and the recovery of injected cells remaining after 18 hours was determined.
row,Molecule,protection from death induced by Fas ligation
1,GST-Bcl-xL: bacterially-expressed GST fusion protein of the survival protein Bcl-xL,efficiently protected HeLa cells from death

# Same assay, conditions: HeLa cells, microinjected peptide, absence of anti-Fas treatment
row,Molecule,effect on cell viability
1,QVGRQLAIIGDDINR [Bak-15],neither peptide had an effect on cell viability
2,QVGRQAAIIGDDINR [Bak-15L78A],neither peptide had an effect on cell viability

# System: Rat-1 cells
# Experiment: Transient transfection cell killing assay (loss of β-galactosidase-positive blue cells)
# Type: cell-based
# Conditions: Rat-1 cells co-transfected with β-galactosidase marker plasmid, 24 hours post transfection, relative to control vector
# Protocol: The transient transfection assay procedure is similar to that previously described for detecting apoptosis induced by IL-1E-converting enzyme (Miura et al., Cell 75: 653-660 (1993); Kumar et al., Genes Dev. 8: 1613-1626 (1994); Wang et al., Cell 78: 739-750 (1994). One day prior to transfection, Rat-1 cells were plated in 24 well dishes at 3.5X10^4 cells/well. The following day, the cells were transfected with a marker plasmid encoding β-galactosidase (0.16 μg), in combination with an expression plasmid encoding Bak (0.42 μg), by the Lipofectamine procedure (Gibco/BRL). At 24 hours post transfection, cells were fixed and stained with X-Gal to detect J-galactosidase expression in cells that received plasmid DNA (Miura et al., supra). The number of blue cells was counted by microscopic examination and scored as either live (flat blue cells) or dead (round blue cells). The cell killing activity of Bak in this assay is manifested by a large reduction in the number of blue cells obtained relative to co-transfection of the β-gal plasmid with a control expression vector (i.e., with no bak cDNA insert).
# The interpretation that loss of blue cells reflects the cell killing function of Bak is supported by a variety of observations: • 1. Rat-1 cells are rapidly killed by enforced Bak expression in stable transfection assays; • 2.
# Enforced bak expression induces apoptosis in stable Rat-1 cell lines transfected with an inducible bak expression plasmid. In order to more rapidly assess the cell killing function of a large number of bak mutants, a transient transfection assay was employed. Rat-1 cells were transfected with a marker plasmid encoding β-galactosidase, in combination with an expression plasmid encoding Bak, or various control plasmids.
row,Molecule,cell killing activity (reduction in number of blue β-gal expressing cells)
1,QVG: truncated Bak protein derivative corresponding to amino acids 73-123 (QVGRQLAIIGDDINRRYDSEFQTMLQHLQPTAENAYEYFTKIATSLFESGI; not fully specified),significantly reduced the number of blue cells
2,Bax: Bcl-2 homolog and Bcl-2 interacting protein that induces apoptosis,eliminate blue cells
3,B1,impaired in their ability to eliminate blue cells
4,B2,impaired in their ability to eliminate blue cells
5,B3,eliminate blue cells

# Same assay, conditions: Rat-1 cells, co-transfection of Bak with Bcl-xL
row,Molecule,restoration of number of blue cells on co-transfection with Bak
1,"Bcl-xL: long form of bcl-x product, suppresses apoptosis",partially restored
